Where a chain is given by its changes, count along the chain named.
Key:
[1] = biological target: T1, HEN1 wt (Arabidopsis thaliana, UniProt Q9C5Q8 1-942); experiment: EMSA
T1 sequence: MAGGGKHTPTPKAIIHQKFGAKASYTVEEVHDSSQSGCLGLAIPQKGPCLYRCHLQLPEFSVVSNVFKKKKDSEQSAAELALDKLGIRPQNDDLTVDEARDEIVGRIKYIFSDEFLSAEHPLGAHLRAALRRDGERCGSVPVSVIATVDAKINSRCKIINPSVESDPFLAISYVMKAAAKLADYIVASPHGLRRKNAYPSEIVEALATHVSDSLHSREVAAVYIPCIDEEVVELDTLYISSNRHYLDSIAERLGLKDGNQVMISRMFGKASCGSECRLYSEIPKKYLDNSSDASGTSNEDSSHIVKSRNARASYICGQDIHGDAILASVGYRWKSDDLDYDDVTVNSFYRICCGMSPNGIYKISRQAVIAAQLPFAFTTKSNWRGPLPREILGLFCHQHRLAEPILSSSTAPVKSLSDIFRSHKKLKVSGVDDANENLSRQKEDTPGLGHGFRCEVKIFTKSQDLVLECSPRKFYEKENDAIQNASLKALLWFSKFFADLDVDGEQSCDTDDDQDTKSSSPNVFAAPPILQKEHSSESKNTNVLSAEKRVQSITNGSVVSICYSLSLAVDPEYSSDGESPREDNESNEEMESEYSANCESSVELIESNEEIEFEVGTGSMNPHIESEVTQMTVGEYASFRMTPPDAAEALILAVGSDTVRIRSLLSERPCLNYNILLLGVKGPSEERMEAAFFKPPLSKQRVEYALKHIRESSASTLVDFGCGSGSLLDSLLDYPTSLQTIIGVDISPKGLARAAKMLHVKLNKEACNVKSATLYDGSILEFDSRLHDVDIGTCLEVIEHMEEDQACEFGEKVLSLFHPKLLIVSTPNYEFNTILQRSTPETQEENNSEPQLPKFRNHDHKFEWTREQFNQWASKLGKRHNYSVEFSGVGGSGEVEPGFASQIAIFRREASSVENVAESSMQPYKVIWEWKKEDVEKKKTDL

[2] = biological target: T2, HEN1-RHK389,397,477AAA (Arabidopsis thaliana, UniProt Q9C5Q8 1-942, R389A;H397A;K477A); experiment: EMSA
T2 sequence: T1 sequence with R389A, H397A, K477A

B1: miR173/miR173* (dsRNA)
RNA 1: UUCGCUUGCAGAGAGAAAUCAC
RNA 2: GAUUCUCUGUGUAAGCGAAAG
In the case of B1, the Kd [1] is reported as 0.43 ± 0.05 nM and the Kd [2] is reported as 302 ± 29 nM.

Reference: paper PMC4357707 (Nucleic Acids Research, 2015)
